In PMC9549855:

Target: T1, nucleocapsid protein (N) (vesicular stomatitis virus), P03521
T1 chain: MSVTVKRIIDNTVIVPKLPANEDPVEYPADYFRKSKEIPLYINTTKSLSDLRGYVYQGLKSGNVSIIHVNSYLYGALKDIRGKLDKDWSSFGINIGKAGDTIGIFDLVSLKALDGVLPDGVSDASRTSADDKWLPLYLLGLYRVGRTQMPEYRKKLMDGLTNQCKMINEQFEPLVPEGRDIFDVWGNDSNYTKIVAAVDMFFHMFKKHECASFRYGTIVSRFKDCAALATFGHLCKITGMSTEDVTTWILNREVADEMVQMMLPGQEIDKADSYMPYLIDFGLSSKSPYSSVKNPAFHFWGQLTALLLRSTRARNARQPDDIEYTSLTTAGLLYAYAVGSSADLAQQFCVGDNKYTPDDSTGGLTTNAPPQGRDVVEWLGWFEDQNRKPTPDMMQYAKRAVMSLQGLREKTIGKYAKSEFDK
Test: cryo-EM structure
Details: remark: other sources report otherwise

B1: matrix protein (M), P03519 1-229 (natural protein)
chain: MSSLKKILGLKGKGKKSKKLGIAPPPYEEDTSMEYAPSAPIDKSYFGVDEMDTYDPNQLRYEKFFFTVKMTVRSNRPFRTYSDVAAAVSHWDHMYIGMAGKRPFYKILAFLGSSNLKATPAVLADQGQPEYHTHCEGRAYLPHRMGKTPPMLNVPEHFRRPFNIGLYKGTIELTMTIYDDESLEAAPMIWDHFNSSKFSDFREKALMFGLIVEKKASGAWVLDSISHFK
Q: Which stoichiometry N does the source give for B1 here?
A: 2
